Measured values: patent US20240262905A1 (PANDION OPERATIONS, published 2024)

B1: IL2DSGAB5 (other)
heavy: QVQLQESGPGPVKPSGTLSLTCGVSGGSISSNHWWTWVRQPPGKGLEWIGEIYHNGSTFLNPSLKSRVTISVDKSNNQFSLKLTSVTAADTAVYYCARGWHRTGFRGYPSHWYFDLWGRGTLVSVSSASTKGPSVFPLAPSSKSTSGGTAALGCLVKDYFPEPVTVSWNSGALTSGVHTFPAVLQSSGLYSLSSVVTVPSSSLGTQTYICNVNHKPSNTKVDKKVEPKSCDKTHTCPPCPAPEAAGAPSVFLFPPKPKDTLMISRTPEVTCVVVDVSHEDPEVKFNWYVDGVEVHNAKTKPREEQYNSTYRVVSVLTVLHQDWLNGKEYKCKVSNKALPAPIEKTISKAKGQPREPQVYTLPPSREEMTKNQVSLTCLVKGFYPSDIAVEWESNGQPENNYKTTPPVLDSDGSFFLYSKLTVDKSRWQQGNVFSCSVMHEALHNHYTQKSLSLSPG
light: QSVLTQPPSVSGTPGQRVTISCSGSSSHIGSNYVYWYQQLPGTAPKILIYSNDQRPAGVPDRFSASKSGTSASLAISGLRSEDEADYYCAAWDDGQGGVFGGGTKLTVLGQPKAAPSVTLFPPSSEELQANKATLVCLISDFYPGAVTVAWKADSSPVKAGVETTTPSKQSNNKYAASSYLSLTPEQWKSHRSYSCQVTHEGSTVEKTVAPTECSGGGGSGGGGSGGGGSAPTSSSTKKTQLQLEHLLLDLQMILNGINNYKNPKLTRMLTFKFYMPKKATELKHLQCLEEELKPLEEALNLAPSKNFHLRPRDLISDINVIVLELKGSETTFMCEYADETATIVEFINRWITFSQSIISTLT
notes: SD1 anti-desmoglein human IgG1 with the IL-2 mutein fused to the C-terminus of the light chain; also called TL2DSGAB5
B2: IL2DSGAB1 (other)
heavy: QVQLQESGPGPVKPSGTLSLTCGVSGGSISSNHWWTWVRQPPGKGLEWIGEIYHNGSTFLNPSLKSRVTISVDKSNNQFSLKLTSVTAADTAVYYCARGWHRTGFRGYPSHWYFDLWGRGTLVSVSSASTKGPSVFPLAPSSKSTSGGTAALGCLVKDYFPEPVTVSWNSGALTSGVHTFPAVLQSSGLYSLSSVVTVPSSSLGTQTYICNVNHKPSNTKVDKKVEPKSCDKTHTCPPCPAPEAAGAPSVFLFPPKPKDTLMISRTPEVTCVVVDVSHEDPEVKFNWYVDGVEVHNAKTKPREEQYNSTYRVVSVLTVLHQDWLNGKEYKCKVSNKALPAPIEKTISKAKGQPREPQVYTLPPSREEMTKNQVSLTCLVKGFYPSDIAVEWESNGQPENNYKTTPPVLDSDGSFFLYSKLTVDKSRWQQGNVFSCSVMHEALHNHYTQKSLSLSPGGGGGSAPTSSSTKKTQLQLEHLLLDLQMILNGINNYKNPKLTRMLTFKFYMPKKATELKHLQCLEEELKPLEEALNLAPSKNFHLRPRDLISDINVIVLELKGSETTFMCEYADETATIVEFINRWITFSQSIISTLT
light: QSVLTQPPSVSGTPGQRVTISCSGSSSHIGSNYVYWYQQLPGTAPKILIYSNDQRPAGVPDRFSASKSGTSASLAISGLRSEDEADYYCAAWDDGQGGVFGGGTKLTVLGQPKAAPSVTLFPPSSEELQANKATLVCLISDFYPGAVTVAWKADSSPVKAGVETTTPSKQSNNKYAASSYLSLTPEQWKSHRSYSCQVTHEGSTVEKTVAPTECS
notes: SD1 anti-desmoglein human IgG1 with the IL-2 mutein fused to the C-terminus of the heavy chain; copies: 2 + 2
B3: IL2DSGAB8 (other)
heavy: QVQLVQSGGGVVQSGRSLRLSCAASGFTFSDYAMHWVRQAPGKGLEWVAVISHGGTKKYTGDSVKGRFIISRDNSKNTVFLQMNSLRVEDTAVYYCARDRVEGYVWGGTFDHWGQGTPVTVSSASTKGPSVFPLAPSSKSTSGGTAALGCLVKDYFPEPVTVSWNSGALTSGVHTFPAVLQSSGLYSLSSVVTVPSSSLGTQTYICNVNHKPSNTKVDKKVEPKSCDKTHTCPPCPAPEAAGAPSVFLFPPKPKDTLMISRTPEVTCVVVDVSHEDPEVKFNWYVDGVEVHNAKTKPREEQYNSTYRVVSVLTVLHQDWLNGKEYKCKVSNKALPAPIEKTISKAKGQPREPQVYTLPPSREEMTKNQVSLTCLVKGFYPSDIAVEWESNGQPENNYKTTPPVLDSDGSFFLYSKLTVDKSRWQQGNVFSCSVMHEALHNHYTQKSLSLSPG
light: ELVLTQPPSVPVAPGQTANISCGGNNIGRQTVHWYQQKPGQAPVLVVFDDSDRPAGIPERFSGSNSGNTATLTISRVEAGDEADYYCQVWDSSSDHVVFGGGTQLTVLGQPKAAPSVTLFPPSSEELQANKATLVCLISDFYPGAVTVAWKADSSPVKAGVETTTPSKQSNNKYAASSYLSLTPEQWKSHRSYSCQVTHEGSTVEKTVAPTECSAEEEKAEEEKAEEEKAEEEKAPTSSSTKKTQLQLEHLLLDLQMILNGINNYKNPKLTRMLTFKFYMPKKATELKHLQCLEEELKPLEEALNLAPSKNFHLRPRDLISDINVIVLELKGSETTFMCEYADETATIVEFINRWITFSQSIISTLT

Key:
[1] = biological target: T1, human CD25 (human, UniProt P01589 22-213, limits assumed); test: BLI (Octet), test article captured on anti-human Fc biosensors, 1:1 global fit (method text names desmogleins as analyte; result told for human CD25)
T1 construct: construct not described
T1 sequence (looked up): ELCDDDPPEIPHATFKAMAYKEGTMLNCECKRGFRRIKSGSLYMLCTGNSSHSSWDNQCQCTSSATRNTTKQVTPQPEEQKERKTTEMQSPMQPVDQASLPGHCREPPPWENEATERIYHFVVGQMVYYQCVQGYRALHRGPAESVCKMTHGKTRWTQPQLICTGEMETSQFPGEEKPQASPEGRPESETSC

[2] = biological target: T2, human DSG-3 (human, UniProt P32926 50-615, limits assumed); test: bridging ELISA, plate coated with hDSG-3, test article at 100 nM, then his-tagged hCD25 1 ug/mL, anti-His-HRP detection
T2 construct: Soluble analyte (Octet) and plate coat (ELISA); also called hDSG-3
T2 sequence (looked up): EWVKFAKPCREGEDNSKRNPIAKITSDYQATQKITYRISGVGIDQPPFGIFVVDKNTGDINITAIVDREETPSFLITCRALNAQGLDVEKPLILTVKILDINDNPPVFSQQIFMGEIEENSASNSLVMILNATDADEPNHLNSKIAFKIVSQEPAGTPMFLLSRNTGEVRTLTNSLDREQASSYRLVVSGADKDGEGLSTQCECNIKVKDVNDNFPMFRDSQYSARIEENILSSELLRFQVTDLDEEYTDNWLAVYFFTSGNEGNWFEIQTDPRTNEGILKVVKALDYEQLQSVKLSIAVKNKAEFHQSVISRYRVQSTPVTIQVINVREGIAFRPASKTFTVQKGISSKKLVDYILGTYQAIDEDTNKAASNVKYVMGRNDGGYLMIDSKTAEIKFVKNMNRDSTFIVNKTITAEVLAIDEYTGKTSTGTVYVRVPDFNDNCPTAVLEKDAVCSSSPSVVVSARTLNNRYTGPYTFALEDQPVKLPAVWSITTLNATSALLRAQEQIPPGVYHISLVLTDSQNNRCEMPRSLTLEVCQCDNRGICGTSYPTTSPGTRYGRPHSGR

[3] = biological target: T2, human DSG-3; test: bridging ELISA, plate coated with hDSG-3, test article at 1 nM, then his-tagged hCD25 1 ug/mL, anti-His-HRP detection
[4] = biological target: T2, human DSG-3; test: bridging ELISA, plate coated with hDSG-3, test article at 10 nM, then his-tagged hCD25 1 ug/mL, anti-His-HRP detection
[5] = biological target: T3, desmoglein-1 (Homo sapiens (Human), UniProt Q02413 50-548); test: BLI (Octet), test article captured on anti-human Fc biosensors, desmoglein as analyte, 1:1 global fit
T3 construct: also called DSG-1
T3 sequence: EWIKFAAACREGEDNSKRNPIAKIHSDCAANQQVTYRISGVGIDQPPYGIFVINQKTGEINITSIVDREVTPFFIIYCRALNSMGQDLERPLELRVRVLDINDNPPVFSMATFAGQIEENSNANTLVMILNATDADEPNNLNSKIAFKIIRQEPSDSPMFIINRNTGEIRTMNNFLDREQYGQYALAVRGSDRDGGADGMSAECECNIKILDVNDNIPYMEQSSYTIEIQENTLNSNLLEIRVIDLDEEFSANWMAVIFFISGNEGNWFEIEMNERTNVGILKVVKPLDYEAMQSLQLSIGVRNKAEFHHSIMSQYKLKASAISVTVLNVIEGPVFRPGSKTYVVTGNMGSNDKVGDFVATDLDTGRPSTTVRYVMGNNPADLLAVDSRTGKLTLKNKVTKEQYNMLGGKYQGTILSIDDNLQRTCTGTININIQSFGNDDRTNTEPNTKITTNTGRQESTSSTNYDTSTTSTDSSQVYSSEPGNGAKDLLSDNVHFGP

[6] = biological target: T4, desmoglein-2 (Homo sapiens (Human), UniProt Q14126 50-609); test: as above
T4 construct: also called DSG-2
T4 sequence: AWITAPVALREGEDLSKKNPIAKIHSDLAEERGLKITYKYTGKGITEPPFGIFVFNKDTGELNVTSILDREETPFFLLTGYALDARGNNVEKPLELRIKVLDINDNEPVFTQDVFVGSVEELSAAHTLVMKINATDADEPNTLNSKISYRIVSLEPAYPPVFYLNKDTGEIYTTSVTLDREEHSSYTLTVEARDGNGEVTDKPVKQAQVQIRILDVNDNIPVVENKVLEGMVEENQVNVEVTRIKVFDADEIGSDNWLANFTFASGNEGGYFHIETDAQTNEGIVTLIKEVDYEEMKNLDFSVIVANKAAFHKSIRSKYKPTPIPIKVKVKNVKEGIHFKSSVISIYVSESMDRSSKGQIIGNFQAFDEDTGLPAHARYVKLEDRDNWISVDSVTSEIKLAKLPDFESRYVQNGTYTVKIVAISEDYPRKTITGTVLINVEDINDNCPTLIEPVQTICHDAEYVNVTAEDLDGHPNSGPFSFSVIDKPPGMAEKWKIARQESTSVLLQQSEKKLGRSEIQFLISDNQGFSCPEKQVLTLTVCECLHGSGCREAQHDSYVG

[7] = biological target: T5, desmoglein-4 (Homo sapiens (Human), UniProt Q86SJ6 50-631); test: as above
T5 construct: also called DSG-4
T5 sequence: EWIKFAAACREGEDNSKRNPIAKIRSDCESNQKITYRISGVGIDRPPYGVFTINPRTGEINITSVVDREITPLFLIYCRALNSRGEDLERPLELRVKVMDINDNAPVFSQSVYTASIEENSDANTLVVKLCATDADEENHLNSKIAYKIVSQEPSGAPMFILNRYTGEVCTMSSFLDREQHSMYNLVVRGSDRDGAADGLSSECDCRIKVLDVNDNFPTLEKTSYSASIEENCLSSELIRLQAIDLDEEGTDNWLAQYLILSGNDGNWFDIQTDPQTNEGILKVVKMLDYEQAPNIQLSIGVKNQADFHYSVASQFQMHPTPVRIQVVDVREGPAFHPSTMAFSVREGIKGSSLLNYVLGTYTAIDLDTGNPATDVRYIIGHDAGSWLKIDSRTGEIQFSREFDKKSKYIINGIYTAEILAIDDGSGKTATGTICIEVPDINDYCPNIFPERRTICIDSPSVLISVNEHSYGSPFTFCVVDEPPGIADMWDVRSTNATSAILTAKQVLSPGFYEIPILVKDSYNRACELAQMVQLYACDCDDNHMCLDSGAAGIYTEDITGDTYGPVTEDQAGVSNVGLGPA

[8] = biological target: T2, human DSG-3; test: as above
[9] = biological target: T6, Insulin; test: ELISA, plate coated with insulin 5 ug/mL, test article at 100 nM, anti-human Fc-HRP detection
T6 construct: Plate coat in the polyreactivity ELISA

Binder | Kd [1] | absorbance (OD450 nm) [2] | absorbance (OD450 nm) [3] | absorbance (OD450 nm) [4] | Kd [5] | Kd [6] | Kd [7] | Kd [8] | Insulin polyreactivity score [9]
B1 | 3.4 nM | 0.965 | 0.27 | 0.483 |  |  |  |  | 
B2 |  | 1.3 | 0.31 | 0.78 | 13 nM | 4.2 nM | 10 nM | 19 nM | 2.2
B3 | 3.5 nM | 1 | 0.29 | 0.41 |  |  |  |  | 
